Marks after values point to notes of the source that are not given here. Where no end group is shown, it is not given here.

These results are taken from patent US20050026841A1, “Hab18g/cd147 its antagonist and application” (priority 2001, published 2005).

One assay has as its system HHCCs. The experiment in a line: reconstituted basement membrane invasion assay with antagonistic peptides. Type of assay: cell-based, human. The settings on record: for inhibitory rate (%): invasion of HHCCs through reconstituted basement membrane, 20 hours, vs control; for inhibition of hepatocellular carcinoma cells invasion and metastasis (in words): reconstituted basement membrane invasion. Here is the method: Matrigel (main component was type IV collagen, BD Company) was added onto the inner surface of Boyden Chambers (Millipore) to form the reconstituted basement membrane. Cells (HHCC cells and human fibroblasts) and antisense RNA were added and the chambers were put in the 24-well plates and co-cultured overnight. Cells infiltrated through the reconstituted basement membrane and appeared on the outer surfaces of the membrane were stained and counted under high-power microscope.
1. in vitro studies: reconstituted basement membrane invasion was employed to test the effects of the antagonistic peptides for HAb18G/CD147 on the invasive ability of HHCCs. Antagonistic peptides were co-cultured with HHCCs and fibroblasts on the reconstituted basement membrane for 20 hours. Cells infiltrated through the reconstituted basement membrane were counted under high-power microscope and the inhibitory rate of the antagonistic peptides was calculated.

The test system of another assay is HHCC cells. The experiment in a line: tumorigenesis of HHCC cells inoculated in mice. Type of assay: in vivo. The settings on record: i.v. 2.5 mg/kg; for inhibitory effect on tumorigenesis of hepatocellular carcinoma cells: 200 μl HHCC cells (1×10^6/ml). Here is the method:
2. in vivo studies: The mice were inoculated with 200 μl HHCC cells (1×10^6/ml) and were then treated with HAb18G/CD147 antagonistic peptides (i.v.) at the dose of 2.5 mg/kg weight. […] Moreover, the average survival time of mice in therapeutic group was two times as long as that of the control group. A high metastatic human hepatocellular carcinoma cell line MHCC97-H was transplanted into the liver of nude mice to investigate the anti-metastasis effects of APs. […] The inhibitory effects of HAb18G/CD147 antagonistic peptides on angiogenesis in chick embryo chorioallantoic membrane (CAM) as well as on angiogenesis induced by Matrigel plug were detected.

Assay [1] deals with T1, HAb18G/CD147 on HHCC hepatocellular carcinoma cells (human, UniProt P35613 140-385, glycosylated (mode not specified)).
T1 sequence: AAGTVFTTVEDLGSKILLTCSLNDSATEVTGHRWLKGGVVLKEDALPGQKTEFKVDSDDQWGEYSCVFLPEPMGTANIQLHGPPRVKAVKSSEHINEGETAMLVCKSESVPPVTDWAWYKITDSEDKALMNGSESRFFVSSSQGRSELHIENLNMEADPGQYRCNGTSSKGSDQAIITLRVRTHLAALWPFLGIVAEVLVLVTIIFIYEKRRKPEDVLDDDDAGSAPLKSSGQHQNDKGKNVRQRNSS
The experiment in a line: cell-based or functional assay.

The subject of the next assay is human fibroblasts. The experiment in a line: gelatin zymography of human fibroblasts stimulated by purified HAb18G/CD147. Type of assay: cell-based. The settings on record: MMP-9, MMP-2 and MT1-MMP. Here is the method: The experiments were carried out as follows:
Purified HAb18G/CD147 was added to the cultured human fibroblasts and the supernatant of the culture was collected and then subjected to SDS-PAG electrophoresis in a separation gel containing 1 mg/ml gelatin. Different from the conventional SDS-PAGE, no DTT was added to the sample and furthermore, the sample was not boiled. After electrophoresis, the gel was washed twice (45 min/each time) at room temperature and washed twice (20 min/each time) with 0.1 mol/L NaCl, and then incubated for 24 hours in an incubation solution at 37° C. The gel was stained with 0.5% (w/v) Coomassie Blue and then destained. MMPs were detected as clear bands against a blue background.

Consider “YPFHHKHWHRPN [AP-6, antagonistic 12-mer peptide for HAb18G/CD147]”, for which, in the assay on HHCCs, the “inhibitory rate (%)” value is reported as 62.38^a %; the “inhibition of hepatocellular carcinoma cells invasion and metastasis (in words)” value (shortened to “inhibition”) is given as “significantly inhibited”. Also, in the assay on HHCC cells, the “inhibitory effect on tumorigenesis of hepatocellular carcinoma cells” value is listed as “significant inhibitory effects”. Moreover, in the assay with HHCC cells (HHCC cells, tumors formed in all control mice), the “tumor formation on the 11th day from inoculation” value is “no tumor formed”.
In the case of “GHWHNHRHQAPL [AP-3, antagonistic 12-mer peptide for HAb18G/CD147]”, the “inhibition” value in the assay with HHCCs is given as “significantly inhibited”.
On to “MTHDPVISLPTT [AP-1, antagonistic 12-mer peptide for HAb18G/CD147]”, for which, in the assay on HHCCs, the “inhibitory rate (%)” value was 78.2^a %; the “inhibition” value is “significantly inhibited”. The “inhibitory effect on tumorigenesis of hepatocellular carcinoma cells” value in the assay with HHCC cells is given as “significant inhibitory effects”.
As for “YKLPGHHHHYRP [AP-9, antagonistic 12-mer peptide for HAb18G/CD147]”, in the assay with HHCCs, the “inhibitory rate (%)” value is on record as 81.19^a %; the “inhibition” value is given as “significantly inhibited”.
The corresponding values for “ANIVPIHANHFQ [AP-7, antagonistic 12-mer peptide for HAb18G/CD147]” are 56.44^a % and “significantly inhibited”.
For “MHKHPHGSQGPT [AP-8, antagonistic 12-mer peptide for HAb18G/CD147]”, in the assay with HHCCs, the “inhibitory rate (%)” value is 68.32^a %; the “inhibition” value was “significantly inhibited”.
As to IGWHYYLRTQHS [HAb18G/CD147 binding/antagonistic peptide (5)], in assay [1], the infiltrative cells is 23.2 cells and the “inhibitory rate (%)” value is -14.8%.
The corresponding values for YPFHHKHWHRPN [HAb18G/CD147 binding/antagonistic peptide (6)] are 7.6 cells and 62.4%.
For ANIVPIHANHFQ [HAb18G/CD147 binding/antagonistic peptide (7)], in assay [1], the infiltrative cells was 8.8 cells and the “inhibitory rate (%)” value worked out at 56.4%.
The corresponding values for MTHDPVISLPTT [HAb18G/CD147 binding/antagonistic peptide (1)] are 4.4 cells and 78.2%.
As to GHWHNHRHQAPL [HAb18G/CD147 binding/antagonistic peptide (3)], in assay [1], the infiltrative cells amounted to 2 cells and the “inhibitory rate (%)” value is 90.1%.
As to KYPHQHLHMHDS [HAb18G/CD147 binding/antagonistic peptide (4)], in assay [1], the infiltrative cells was found to be 12.2 cells and the “inhibitory rate (%)” value was found to be 39.6%.

B1: HAb18G/CD147: hepatocellular carcinoma-associated antigen of 269 amino acids, purified from HHCC cells by HAb18 affinity chromatography (protein, listed as Homo sapiens)
chain: MAAALFVLLGFALLGTHGASGAAGTVFTTVEDLGSKILLTCSLNDSATEVTGHRWLKGGVVLKEDALPGQKTEFKVDSDDQWGEYSCVFLPEPMGTANIQLHGPPRVKAVKSSEHINEGETAMLVCKSESVPPVTDWAWYKITDSEDKALMNGSESRFFVSSSQGRSELHIENLNMEADPGQYRCNGTSSKGSDQAIITLRVRTHLAALWPFLGIVAEVLVLVTIIFIYEKRRKPEDVLDDDDAGSAPLKSSGQHQNDKGKNVRQRNSS
On to B1, for which the “MMPs secreted by human fibroblasts after stimulation” value in the assay with human fibroblasts is recorded as “secreted three different MMPs”.
Regarding MHKHPHGSQGPT [HAb18G/CD147 binding/antagonistic peptide (8)], in assay [1], the infiltrative cells is 6.4 cells and the “inhibitory rate (%)” value is 68.3%.
Taken in the same sequence, the figures for YKLPGHHHHYRP [HAb18G/CD147 binding/antagonistic peptide (9)] were 3.8 cells and 81.2%.
The corresponding values for LHRHSHGHSYKS [HAb18G/CD147 binding/antagonistic peptide (2)] are 28 cells and -38.6%.
